Kd data for two substances are collected here from US20260217797A1.

For assay [1], the target named is SARS-CoV-2 L452R RBD (Epsilon) (SARS-CoV-2) (UniProt P0DTC2). The assay can be described thus: Octet BLI single point, monovalent. Background: Biolayer interferometry detects binding as a change in optical thickness at a sensor tip.
Assay [2] addresses SARS-CoV-2 B.1.1.7 N501Y (Alpha) RBD (SARS-CoV-2) (UniProt P0DTC2). The assay can be described thus: Octet BLI single point, monovalent.

As usually defined, the Kd is the constant that tells how readily two partners part at equilibrium. A higher Kd goes with lower affinity. As for RGN10933 (antibody), the results for the Kd in assay [1] and in assay [2] were 9.52 nM and 6.57 nM, respectively.

Turning to RGN10987 (antibody), the figures for the Kd in assay [1] and in assay [2] were 17.4 nM and 15.1 nM, respectively.
